Results from the RNAGym collection of RNA variant scans (doi:10.1073/pnas.2313332121).

B1: TPR t1 (parent)
chain: GACCAAUCUGCCCUCAGAGCUCGAGAACAUCUUCGGAUGCAGAGGAGGCAGGCUUCGGUGGCGCGAUAGCGCCAACGUCCUCAACCUCCAAUGCAUCCCACCACAUGAUGAUGCCUGAAGAGCCUUGGUUUUUUG

Variants of: B1
Experiment: polymerase ribozyme fitness, log enrichment relative to wild type (log ratio); higher = more active; in vitro selection for triplet polymerase activity
Procedure, shortened: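 For each subunit of a heterodimeric triplet polymerase ribozyme, a mutant library was built by PCR and transcribed, then taken through a single in vitro selection round in triplicate. Selection involved annealing to a biotinylated primer, the partner subunit and triplets, incubation frozen at −7 °C, gel excision of extended constructs, capture on streptavidin beads and RT-PCR. Genotypes were retained after Illumina sequencing of inputs and outputs only with ≥10 input reads and ≥1 read in each output. Fitness is defined as the logarithm of a genotype's enrichment relative to wild-type enrichment, using inverse-variance-weighted averages across replicates, with the logarithm taken to base 2.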

Variant	polymerase ribozyme fitness (log ratio)
A68G C114U	-5.48
C15U G51A C72G A121C	-2.34
C13G C94A C101G C123G	-1.76
U9C C13G	0.844
G60U G77C C89U U132A	-0.345
U9C G39C G128C	-1.84
G48A C73U C85A	-1.26
C56G G63A C101G G122U	-5.14
G61C A103C U109G	-5.79
C72A C73U	-0.581
A26U C62A A83U G117A	-6.44
C72G A121C	1.48
G57A C76U A90U	-1.14
A43C U131C	-1.94
A2U G36U A41U U54G	-6.42
G60C G127A	-1.59
A5U C53U U92A G113U	-4.65
G17A G93U	-4.76
C13A A16U C94U A111U C123G U130C	-6.28
C13U C20G C64A C73U C104A G110U A121U	-7.37
U14A G48U	-2.9

Variant	polymerase ribozyme fitness (log ratio)
C12A A37G U132A	-1.37
G93A C104U	-0.0844
C4A G36A C73A	-3.19
C8G C62U C86G G117A A119U	-0.52
A41U G110C	-4.99
C12A G17C G48C	-6.47
G77U A91U	-2.18
C15A U106A	-1.94
A43C C56A A66U U112A	-4.32
A6C C72A	-1.05
U7G A46G C124A	1.74
C15U G25A	-4.87
C56G U78A G117A	-2.04
G17U G23U A74U C123G	-5.53
C3U C53A C72G	-1.22
A18G G42C C99A	-5.32
G61C U92C	-2.59
C12A G71U	-0.821
G63A U112A C114G G122U	-1.75
A6U C8A	0.618
C13U A18G G36A G48U C72U A118U	-6.03

Variant	polymerase ribozyme fitness (log ratio)
G10U A50C C73A U78G A90G	-0.824
C13A A27U A43U G57C	-4.33
G48A G63A A75G	-1.21
A18G G39U C53U G71A G120A	-4.4
U78C C115U	0.0691
A84U C102U C123U	-1.1
U30G C115A	-5.72
C11G A29U A46G C72A A100C A119U	-3.42
A26U C53U G71C A118U	-3.17
C79A G127U	-2.57
C31A U81C C124A	-5.14
A2C C13G G93U G120U	-2.23
U33C C64U	-3.44
C12A G42C C73A C80U A118G	-3.44
A18C G47A	-2.19
G63A G117U	-3.18
C12A C64U U133G	-0.934
G69U C104A U126A	-1.49
A16U G17A C20A C49A C73U	-4.77
C31U C123A	-4.45
G42C U96A C123U	-0.809

Variant	polymerase ribozyme fitness (log ratio)
G10A G42U C49A G61C C98A U112G U130G	-7.46
C12G C70U	-0.468
C3G U9A C85A	-2.07
C76A C115U U129A	-4.13
C4G C8A C80U C115A G120A U125A	-2.71
U54G C123G	0.306
C8G A50U U54C U106A G117A	-0.842
A41G G48U C62A C80U A91U C98U C123A	-7.74
U32A U38C G69C A95U	-6.24
G77C C102U	-2.02
C98U C115A	-2
G44U C80U	-1.59
C11G A50C U125A	-0.245
G42U C94U U126A U129G	-5.24
G10U G71C G135U	-3.12
C11G C40G C70G C89U	-5.83
C11A G61C	-2.39
A43C A46G	-1.62
C56U G110U A121U	-1.11
C13U G39U G44U	-1.24
